One may read the Ki as the dissociation constant of the complex between target and ligand, obtained from inhibition or displacement. Usually Kd stands for the constant that tells how readily two partners part at equilibrium.

Test [1] concerns the target Recombinant FAK FAT protein (fluorescence polarization assay) (human) (UniProt Q05397). As to the kind of experiment: FP.
The target in test [2] is Biotinylated AviTag FAK FAT protein (UniProt Q05397). In words: SPR. The settings on record: left panel, two-site binding model, peptide 200 µM to 49 nM, n = 5, X = olefinic amino acids joined by an i,i + 7 hydrocarbon staple.
Sequence of Biotinylated AviTag FAK FAT protein (Q05397 whole entry): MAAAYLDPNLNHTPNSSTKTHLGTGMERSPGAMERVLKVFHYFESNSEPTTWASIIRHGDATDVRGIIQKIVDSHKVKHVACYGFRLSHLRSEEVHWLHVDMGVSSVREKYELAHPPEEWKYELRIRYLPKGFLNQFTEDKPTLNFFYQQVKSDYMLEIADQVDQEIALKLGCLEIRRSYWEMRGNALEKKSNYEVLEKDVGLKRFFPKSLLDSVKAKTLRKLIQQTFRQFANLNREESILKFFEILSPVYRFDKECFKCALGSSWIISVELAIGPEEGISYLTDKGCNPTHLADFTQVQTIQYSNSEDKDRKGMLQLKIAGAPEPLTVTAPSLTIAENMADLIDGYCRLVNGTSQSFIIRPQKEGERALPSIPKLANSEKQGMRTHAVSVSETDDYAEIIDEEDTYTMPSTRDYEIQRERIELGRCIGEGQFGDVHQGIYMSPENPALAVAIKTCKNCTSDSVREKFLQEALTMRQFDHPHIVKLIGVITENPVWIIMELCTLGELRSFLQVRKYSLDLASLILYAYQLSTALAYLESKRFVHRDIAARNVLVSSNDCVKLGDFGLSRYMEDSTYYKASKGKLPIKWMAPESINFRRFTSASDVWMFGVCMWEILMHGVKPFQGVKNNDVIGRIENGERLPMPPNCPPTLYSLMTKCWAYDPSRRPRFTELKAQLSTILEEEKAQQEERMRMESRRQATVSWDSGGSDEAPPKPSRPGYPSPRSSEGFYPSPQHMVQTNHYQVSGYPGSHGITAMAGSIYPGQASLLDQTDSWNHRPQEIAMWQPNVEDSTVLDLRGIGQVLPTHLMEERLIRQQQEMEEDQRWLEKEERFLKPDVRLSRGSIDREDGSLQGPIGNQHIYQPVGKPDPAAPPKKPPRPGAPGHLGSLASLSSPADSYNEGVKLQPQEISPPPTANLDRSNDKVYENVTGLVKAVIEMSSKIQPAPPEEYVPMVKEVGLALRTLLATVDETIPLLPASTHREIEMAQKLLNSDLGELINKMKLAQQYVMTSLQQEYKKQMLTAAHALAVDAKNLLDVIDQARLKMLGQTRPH

Sequence of Recombinant FAK FAT protein (fluorescence polarization assay) (human) (Q05397 whole entry): as above
Sequence of Negative control peptide 2014 (1907 with L145E and L152E) (P49023 whole entry L145E/L152E, looked up, tested part not stated): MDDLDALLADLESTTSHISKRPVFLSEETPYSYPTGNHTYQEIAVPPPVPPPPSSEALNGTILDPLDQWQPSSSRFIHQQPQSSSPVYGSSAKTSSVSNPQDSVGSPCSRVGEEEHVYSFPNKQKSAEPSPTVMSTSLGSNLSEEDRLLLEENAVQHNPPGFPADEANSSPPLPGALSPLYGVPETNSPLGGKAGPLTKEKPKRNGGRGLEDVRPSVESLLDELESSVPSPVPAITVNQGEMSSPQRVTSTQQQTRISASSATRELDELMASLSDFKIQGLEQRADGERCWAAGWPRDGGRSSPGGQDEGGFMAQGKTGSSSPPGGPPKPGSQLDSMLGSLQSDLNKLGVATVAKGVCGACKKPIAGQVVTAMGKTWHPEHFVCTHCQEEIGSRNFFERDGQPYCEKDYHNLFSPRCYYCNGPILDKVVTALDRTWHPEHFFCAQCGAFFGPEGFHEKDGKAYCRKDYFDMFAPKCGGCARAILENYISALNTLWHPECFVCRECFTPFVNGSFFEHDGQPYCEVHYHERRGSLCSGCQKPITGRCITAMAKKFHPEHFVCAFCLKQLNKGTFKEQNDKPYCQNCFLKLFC

Consider “Negative control peptide 2014 (1907 with L145E and L152E) (from UniProt P49023 141-153)”, for which the Ki in test [1] was more than 1.25 mM. Take “Paxillin LD2 peptide (141-…-153) S143X; L150X”: the Kd is 0.8 µM in test [2] (KD1) and 8.7 µM in test [2] (KD2).

The record behind these values is article PMC11871066, “Structure-based discovery of hydrocarbon-stapled paxillin peptides that block FAK scaffolding in cancer” (Nature Communications, 2025).
